Data: PMC6274866, “The 2β Splice Variation Alters the Structure and Function of the Stromal Interaction Molecule Coiled-Coil Domains” (International Journal of Molecular Sciences, 2018)

Assays:
[1] = molecular target: the molecule itself; test: SEC-MALS; 1 mg/mL protein injected on Superdex 200 Increase 10/300 GL at 10 °C; 20 mM TRIS, 300 mM NaCl, 1 mM DTT, pH 8.0; with 25 mM CaCl2; stoichiometric ratio = MALS molecular weight / theoretical monomer mass
[2] = molecular target: the molecule itself; test: SEC-MALS; 1 mg/mL protein injected on Superdex 200 Increase 10/300 GL at 10 °C; 20 mM TRIS, 300 mM NaCl, 1 mM DTT, pH 8.0; without CaCl2; stoichiometric ratio = MALS molecular weight / theoretical monomer mass

B1: STIM1-2β-OASF (STIM1-OASF mutated to contain the VAASYLIQ (2β) insertion after G379) (domain or fragment, human, UniProt Q13586-1 234-491, looked up)
chain: NRYSKEHMKKMMKDLEGLHRAEQSLHDLQERLHKAQEEHRTVEVEKVHLEKKLRDEINLAKQEAQRLKELREGTENERSRQKYAEEELEQVREALRKAEKELESHSSWYAPEALQKWLQLTHEVEVQYYNIKKQNAEKQLLVAKEGVAASYLIQAEKIKKKRNTLFGTFHVAHSSSLDDVDHKILTAKQALSEVTAALRERLHRWQQIEILCGFQIVNNPGIHSLVAALNIDPSWMGSTRPNPAHFIMTDDVDDMDEEIVSPLSMQ
notes: Made by PCR-mediated site-directed mutagenesis of pET-28a-STIM1-OASF; A few vector residues probably remain after thrombin cleavage (surmise); source: E. coli BL21 (DE3), purified under denaturing conditions (guanidine-HCl, nickel-NTA), renatured, thrombin-cleaved, SEC
With B1 as the protein, how does the “stoichiometry N” value [1] read?
The value was 1.96.

And the “stoichiometry N” value [2]?
The value was 2.02.
